{"source": "paper PMC6598175", "proteins": {"B1": {"name": "…_127619 (Aspergillus aculeatus ATCC 16872) (protein)", "chain": "VGLDQAAVAKGLQYFGTATDNPELTDIPYVTQLNNTADFGQITPGNSMKWDATEPSQGTFTFTNGDVIADLAEGNGQYLRCHTLVWYNQLPSWVTSGTWTNATLTAALKNHITNVVSHYKGKCLHWDVVNEALNDDGTYRTNIFYTTIGEAYIPIAFAAAAAADPDAKLFYNDYNLEYGGAKAASARAIVQLVKNAGAKIDGVGLQAHFSVGTVPSTSSLISVLQSFTALGVEVAYTEADVRILLPTTATTLAQQSSDFQALVQSCVQTTGCVGFTIWDWTDKYSWVPSTFSGYGAALPWDENLVKKPAYNGLLAG"}}, "substrate": "Cc1cc(=O)oc2cc(O[C@@H]3OC[C@@H](O[C@@H]4OC[C@@H](O)[C@H](O)[C@H]4O)[C@H](O)[C@H]3O)ccc12", "test": "Substrate hydrolysis kinetics", "type": "biochemical, A. aculeatus", "settings": "other: fluorogenic 4MU substrate, pH 5.0", "data": [{"protein": "B1", "values": [{"measurement": "Km", "result": 279, "unit": "µM"}]}]}
